As a reminder, the Kd is the equilibrium constant for the complex coming apart. Lower therefore signals higher affinity.

Results on one substance are retold here after PMC11926245, “Structural recognition and stabilization of tyrosine hydroxylase by the J-domain protein DNAJC12” (Nature Communications, 2025).

For the assay, the target named is Tyrosine hydroxylase, wild-type (hTH1) (human) (UniProt P07101). Nature of the assay: BLI; biotinylated TH or TH variant immobilised on streptavidin sensors; DNAJC12 or variant 0.01-4 μM in solution; PBS, 0.02% Tween-20, 0.5 mg/mL BSA, 25 °C; responses fitted to a one-site hyperbola. In general terms: In BLI a coated tip is dipped into the sample, and binding shifts an interference pattern.

Sequence of DNAJC12(1-107) (Q9UKB3 1-107): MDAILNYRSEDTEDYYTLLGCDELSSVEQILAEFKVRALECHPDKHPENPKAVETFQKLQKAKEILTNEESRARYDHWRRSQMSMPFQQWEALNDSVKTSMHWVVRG

“DNAJC12(1-107) (from UniProt Q9UKB3-1 1-107) (domain or fragment)” displayed a Kd of 3.99 µM.
